Assay results reported in PMC8269367.

target: HMGN3 (Homo sapiens) (UniProt Q15651); test: MST; settings: 50 nM labelled protein, 0.61 nM-20 uM oligo, 140 mM potassium phosphate pH 7.2 (6.7 for i-motif N1-3; CTCF oligo CD at pH 6.7), 10 mM NaCl in oligo …
Sequence (Q15651 whole entry): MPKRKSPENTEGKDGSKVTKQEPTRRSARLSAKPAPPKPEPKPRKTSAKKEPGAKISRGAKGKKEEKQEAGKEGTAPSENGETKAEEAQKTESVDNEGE

| Substance | Kd [nM] |
| --- | --- |
| GGGGCCAGTGGACGCGGGGAGCCTGCGGG [N3-M6] | > 10000 |
| TTTTTTTTTTTTTTTTTTTT [T20] | > 20000 |
| AAAAAAAAAAAAAAAAAAAA [A20] | > 20000 |
| TTTTCTTCTTCTTTT (double strand) [N3-1/N3C-1] | > 20000 |
| CAATCGGATCGAATTCGATCCGATTG [hair (ds26)] | > 20000 |
| GGGGACGAAGGGGGCGCGGTGCCTCCTGG [N3-M7] | 150 |
| GGAGCAGGTGGGGAGCAGGCCGGAAGAGG [N3-M5] | > 20000 |
| AAGGAAAAGAAAAAA (double strand) [N3-2/N3C-2] | > 20000 |

target: T1, CTCF (Mus musculus) (UniProt Q61164); test: MST; settings: 50 nM labelled protein, 0.61 nM-20 uM oligo, 140 mM potassium phosphate pH 7.2 (6.7 for i-motif N1-3; CTCF oligo CD at pH 6.7), 10 mM NaCl in oligo …
T1 sequence: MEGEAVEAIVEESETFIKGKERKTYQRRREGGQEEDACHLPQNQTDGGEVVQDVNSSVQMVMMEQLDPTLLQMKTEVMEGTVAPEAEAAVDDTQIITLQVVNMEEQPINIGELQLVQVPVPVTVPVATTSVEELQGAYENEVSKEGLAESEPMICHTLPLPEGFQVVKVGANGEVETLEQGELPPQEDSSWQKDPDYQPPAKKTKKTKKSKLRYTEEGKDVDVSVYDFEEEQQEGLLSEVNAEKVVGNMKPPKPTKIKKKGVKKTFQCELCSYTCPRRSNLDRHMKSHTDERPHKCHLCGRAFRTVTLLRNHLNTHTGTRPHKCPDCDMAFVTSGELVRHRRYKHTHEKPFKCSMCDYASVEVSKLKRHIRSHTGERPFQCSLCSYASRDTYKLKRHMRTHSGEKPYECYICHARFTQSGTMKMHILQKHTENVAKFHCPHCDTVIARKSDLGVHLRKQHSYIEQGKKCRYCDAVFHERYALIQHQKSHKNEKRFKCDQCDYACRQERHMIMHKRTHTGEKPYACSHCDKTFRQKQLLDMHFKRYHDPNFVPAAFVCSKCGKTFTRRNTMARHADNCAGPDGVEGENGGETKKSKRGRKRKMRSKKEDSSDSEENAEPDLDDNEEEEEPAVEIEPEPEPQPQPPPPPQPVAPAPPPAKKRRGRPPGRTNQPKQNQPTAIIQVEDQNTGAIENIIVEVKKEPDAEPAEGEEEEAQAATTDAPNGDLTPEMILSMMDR

| Substance | Kd [nM] |
| --- | --- |
| control CTCF duplex | 80 |
| GGGGGTGGGGGGTGGGGGGAGGGGGG [SHA-G4] | 70 |
| GGGGGGCGGGGGGCGGGGGGGGGGG [BDN-G4] | 120 |
